Results reported in patent publication US20240150489A1.

Key:
[1] = target: CD38 on Raji-CD47KO cells (human) (UniProt P28907); assay: flow cytometry dot plot, Raji-CD47KO cells, saturating Darzalex-AF647 alone; other quadrants printed Q1 0, Q2 0, Q4 0.23
[2] = target: CD38 on Raji-CD47KO cells (human) (UniProt P28907); assay: flow cytometry dot plot, Raji-CD47KO cells, mix of saturating Darzalex-AF647 and BEAT 38/47-60-AF488; other quadrants printed Q1 0.070, Q3 0.21, Q4 0.035

percent of cells in quadrant Q3 (AF647 positive, AF488 negative) [1]: 99.8%
percent of cells in quadrant Q2 (AF488 and AF647 double positive) [2]: 99.7%
Substance: Darzalex (antibody)
